Reference: paper PMC11633381, “Acarbose impairs gut Bacteroides growth by targeting intracellular glucosidases” (mBio, 2024)

Molecular target: the molecule itself
Assay: SEC; 0.5 mL of 10.6 mg/mL BoSusA or 8.2 mg/mL SusA on HiPrep 16/60 Sephacryl S-200 HR, 20 mM HEPES, 100 mM NaCl, pH 7.0, 0.5 mL/min; compared with BioRad gel filtration standards

B1: SusA, periplasmic GH13 neopullulanase/alpha-amylase of the Bacteroides thetaiotaomicron Sus (enzyme, UniProt Q8A1G0 23-617, looked up)
chain: TSTIKKVAPTFWWAGMKNPELQILLYGDRISSADVSLSADNITLQEVVKQENPNYLVLYLDLSKAAPQNFDIILKQGKKQTKIPYELKQRRPNASAVEGFDSSDVLYLIMPDRFANGNPSNDIIPGMLEGNVDRNEPFARHGGDLKGIENHLDYIADLGVTSIWLNPIQENDMKEGSYHGYAITDYYQVDRRFGSNEEFRKLTQEANAKGLKVVMDMIFNHCGSDNYLFKDMPSKDWFNFEGNYVQTSFKTATQMDPYASDYEKKIAIDGWFTLTMPDFNQRNRHVATYLIQSSIWWIEYAGINGIRQDTHPYADFDMMARWCKAVNEEYPKFNIVGETWLGNNVLISYWQKDSRLAYPKNSNLPTVMDFPLMEEMNKAFDEETTEWNGGLFRLYEYLSQDIVYSHPMSLLTFLDNHDTSRFYRSEADTKNLDRYKQALTFLLTTRGIPQIYYGTEILMAADKANGDGLLRCDFPGGWPNDTKNCFDAANRTPQQNEAFSFMQKLLQWRKGNEVIAKGQLKHFAPNKGVYVYERKYGDKSVVVFLNGNDREQTIDLVPYQEILPASSAFDLLTEKKVELRNELTLPSREIYLLSF
notes: SusA, Bacteroides thetaiotaomicron VPI-5482, locus tag bt_3704 (NCBI AAO78809.1, 617 amino acids); cloned starting with T23, after the SPI signal peptide; also called bt_3704
For B1, the “stoichiometry N” value was 2.
